Measured values reported in patent US20200164085A1 (Merck Sharp & Dohme, published 2020).

Target: T1, human CD74 (human, UniProt P04233 1-296)
T1 sequence (looked up): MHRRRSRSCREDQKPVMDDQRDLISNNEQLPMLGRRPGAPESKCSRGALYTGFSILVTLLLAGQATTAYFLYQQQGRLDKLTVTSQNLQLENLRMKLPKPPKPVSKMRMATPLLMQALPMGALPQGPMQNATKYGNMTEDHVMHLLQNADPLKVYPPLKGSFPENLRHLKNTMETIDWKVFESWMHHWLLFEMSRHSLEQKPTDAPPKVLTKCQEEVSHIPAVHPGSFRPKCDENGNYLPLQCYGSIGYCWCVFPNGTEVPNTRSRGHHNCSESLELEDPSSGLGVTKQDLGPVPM
Test: cell-based or functional assay

B1: ADC 12-5 (anti-hCD74 (LL1) conjugated to Linker 2-7) (antibody, human IgG1, kappa, V domains shown)
VH: QVQLQQSGSELKKPGASVKVSCKASGYTFTNYGVNWIKQAPGQGLQWMGWINPNTGEPTFDDDFKGRFAFSLDTSVSTAYLQISSLKADDTAVYFCSRSRGKNEAWFAYWGQGSLVTVSS
VL: DIQLTQSPLSLPVTLGQPASISCRSSQSLVHRNGNTYLHWFQQRPGQSPRLLIYTVSNRFSGVPDRFSGSGSGTDFTLKISRVEAEDVGVYFCSQSSHVPPTFGAGTRLEIKR
modifications: position 121 is para-azido phenylalanine (pAzF), conjugated to dexamethasone drug-linker 2-7
EC50, GILZ mRNA, HUT-78 cells: 1.32 µg/mL
EC50, GILZ mRNA, SUDHL-6 cells: 0.4 µg/mL
Emax, GILZ mRNA, HUT-78 cells: 4.13
Emax, GILZ mRNA, SUDHL-6 cells: 3.4

B2: ADC 12-7 (anti-hCD74 (LL1) conjugated to Linker 4-3) (antibody, human IgG1, kappa, V domains shown)
VH: QVQLQQSGSELKKPGASVKVSCKASGYTFTNYGVNWIKQAPGQGLQWMGWINPNTGEPTFDDDFKGRFAFSLDTSVSTAYLQISSLKADDTAVYFCSRSRGKNEAWFAYWGQGSLVTVSS
VL: DIQLTQSPLSLPVTLGQPASISCRSSQSLVHRNGNTYLHWFQQRPGQSPRLLIYTVSNRFSGVPDRFSGSGSGTDFTLKISRVEAEDVGVYFCSQSSHVPPTFGAGTRLEIKR
modifications: position 121 is para-azido phenylalanine (pAzF), conjugated to dexamethasone drug-linker 4-3
EC50, GILZ mRNA, HUT-78 cells: > 30 µg/mL
EC50, GILZ mRNA, SUDHL-6 cells: 14.3 µg/mL
Emax, GILZ mRNA, HUT-78 cells: 1.93
Emax, GILZ mRNA, SUDHL-6 cells: 1.52

B3: ADC 12-4 (anti-hCD74 (LL1) conjugated to Linker 1-4) (antibody, human IgG1, kappa, V domains shown)
VH: QVQLQQSGSELKKPGASVKVSCKASGYTFTNYGVNWIKQAPGQGLQWMGWINPNTGEPTFDDDFKGRFAFSLDTSVSTAYLQISSLKADDTAVYFCSRSRGKNEAWFAYWGQGSLVTVSS
VL: DIQLTQSPLSLPVTLGQPASISCRSSQSLVHRNGNTYLHWFQQRPGQSPRLLIYTVSNRFSGVPDRFSGSGSGTDFTLKISRVEAEDVGVYFCSQSSHVPPTFGAGTRLEIKR
modifications: position 121 is para-azido phenylalanine (pAzF), conjugated to dexamethasone drug-linker 1-4
EC50, GILZ mRNA, HUT-78 cells: 1.08 µg/mL
EC50, GILZ mRNA, SUDHL-6 cells: 0.99 µg/mL
Emax, GILZ mRNA, HUT-78 cells: 3.95
Emax, GILZ mRNA, SUDHL-6 cells: 3.44

B4: ADC 12-9 (anti-hCD74 (LL1) conjugated to Linker 6-2) (antibody, human IgG1, kappa, V domains shown)
VH: QVQLQQSGSELKKPGASVKVSCKASGYTFTNYGVNWIKQAPGQGLQWMGWINPNTGEPTFDDDFKGRFAFSLDTSVSTAYLQISSLKADDTAVYFCSRSRGKNEAWFAYWGQGSLVTVSS
VL: DIQLTQSPLSLPVTLGQPASISCRSSQSLVHRNGNTYLHWFQQRPGQSPRLLIYTVSNRFSGVPDRFSGSGSGTDFTLKISRVEAEDVGVYFCSQSSHVPPTFGAGTRLEIKR
modifications: position 121 is para-azido phenylalanine (pAzF), conjugated to dexamethasone drug-linker 6-2
EC50, GILZ mRNA, HUT-78 cells: > 30 µg/mL
EC50, GILZ mRNA, SUDHL-6 cells: > 30 µg/mL
Emax, GILZ mRNA, HUT-78 cells: 2.55
Emax, GILZ mRNA, SUDHL-6 cells: 6.48

B5: ADC 12-10 (anti-hCD74 (LL1) conjugated to Linker 9-4) (antibody, human IgG1, kappa, V domains shown)
VH: QVQLQQSGSELKKPGASVKVSCKASGYTFTNYGVNWIKQAPGQGLQWMGWINPNTGEPTFDDDFKGRFAFSLDTSVSTAYLQISSLKADDTAVYFCSRSRGKNEAWFAYWGQGSLVTVSS
VL: DIQLTQSPLSLPVTLGQPASISCRSSQSLVHRNGNTYLHWFQQRPGQSPRLLIYTVSNRFSGVPDRFSGSGSGTDFTLKISRVEAEDVGVYFCSQSSHVPPTFGAGTRLEIKR
modifications: position 121 is para-azido phenylalanine (pAzF), conjugated to budesonide drug-linker 9-4
EC50, GILZ mRNA, HUT-78 cells: 0.2 µg/mL
EC50, GILZ mRNA, SUDHL-6 cells: 0.21 µg/mL
Emax, GILZ mRNA, HUT-78 cells: 6.47
Emax, GILZ mRNA, SUDHL-6 cells: 5.89

B6: ADC 12-6 (anti-hCD74 (LL1) conjugated to Linker 3-4) (antibody, human IgG1, kappa, V domains shown)
VH: QVQLQQSGSELKKPGASVKVSCKASGYTFTNYGVNWIKQAPGQGLQWMGWINPNTGEPTFDDDFKGRFAFSLDTSVSTAYLQISSLKADDTAVYFCSRSRGKNEAWFAYWGQGSLVTVSS
VL: DIQLTQSPLSLPVTLGQPASISCRSSQSLVHRNGNTYLHWFQQRPGQSPRLLIYTVSNRFSGVPDRFSGSGSGTDFTLKISRVEAEDVGVYFCSQSSHVPPTFGAGTRLEIKR
modifications: position 121 is para-azido phenylalanine (pAzF), conjugated to dexamethasone drug-linker 3-4
EC50, GILZ mRNA, HUT-78 cells: 1.87 µg/mL
EC50, GILZ mRNA, SUDHL-6 cells: 0.47 µg/mL
Emax, GILZ mRNA, HUT-78 cells: 4.61
Emax, GILZ mRNA, SUDHL-6 cells: 3.33
